Measurements as given in patent publication US20200102387A1 (CELGENE, published 2020).

T1: cynomolgus SIRPα on cells (cynomolgus, UniProt P78324 31-373 (human entry))
T1 construct: also called cyno SIRPα-CHO; Cyno SIRPα-CHO-K1; not shown: Transmembrane and cytoplasmic region of cynomolgus SIRPα
T1 chain: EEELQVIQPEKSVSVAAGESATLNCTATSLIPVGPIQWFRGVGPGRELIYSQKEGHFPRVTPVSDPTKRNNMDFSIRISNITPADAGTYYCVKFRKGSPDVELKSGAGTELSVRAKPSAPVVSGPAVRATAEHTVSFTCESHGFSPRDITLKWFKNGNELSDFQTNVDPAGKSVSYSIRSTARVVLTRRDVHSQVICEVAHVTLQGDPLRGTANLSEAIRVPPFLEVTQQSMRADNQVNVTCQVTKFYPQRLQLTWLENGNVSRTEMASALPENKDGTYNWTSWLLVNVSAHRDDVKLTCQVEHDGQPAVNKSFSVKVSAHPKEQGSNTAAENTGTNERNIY


How the values were obtained:
human SIRPα on cells = target: T2, human SIRPα on cells (human, UniProt P78324 31-504); test: cell binding, Hu SIRPα-CHO-K1 cells, 100 nM antibody
T2 construct: whole, on cells; also called human SIRPα-CHO; Hu SIRPα-CHO-K1

[1] = target: T1, cynomolgus SIRPα on cells; test: cell binding, Cyno SIRPα-CHO-K1 cells, 100 nM antibody
mouse SIRPα-Fc = target: T3, mouse SIRPα-Fc (mouse); test: BLI Octet, antigen-Fc on biosensor;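 also: antigen captured on the biosensor tip and then immersed in solutions of the test antibodies, which act as the analyte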
T3 construct: a signal peptide may be part of the entry; also called Ms; Ms SIRPα-Fc
T3 sequence (chain, as listed by the source limits assumed): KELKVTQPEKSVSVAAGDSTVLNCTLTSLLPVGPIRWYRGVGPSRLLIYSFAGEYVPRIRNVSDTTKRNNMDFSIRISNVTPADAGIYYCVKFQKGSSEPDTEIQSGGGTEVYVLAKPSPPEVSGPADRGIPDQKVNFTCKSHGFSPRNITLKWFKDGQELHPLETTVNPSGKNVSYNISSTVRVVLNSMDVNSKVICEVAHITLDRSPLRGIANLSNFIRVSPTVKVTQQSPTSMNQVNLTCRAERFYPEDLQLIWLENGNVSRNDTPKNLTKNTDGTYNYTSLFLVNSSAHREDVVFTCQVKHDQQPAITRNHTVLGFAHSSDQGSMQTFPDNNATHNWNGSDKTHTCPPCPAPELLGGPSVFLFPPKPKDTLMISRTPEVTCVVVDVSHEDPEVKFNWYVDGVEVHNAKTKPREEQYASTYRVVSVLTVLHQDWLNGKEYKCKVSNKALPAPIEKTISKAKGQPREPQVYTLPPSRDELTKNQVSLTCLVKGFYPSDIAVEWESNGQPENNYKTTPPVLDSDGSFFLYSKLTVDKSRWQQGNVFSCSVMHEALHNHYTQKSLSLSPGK

[2] = target: T4, human SIRPα v3-Fc (SIRPα3 extracellular domain fused to human IGHG1_Fc) (human, UniProt P78324 31-373; P0DOX5 223-449 = IgG part); test: BLI Octet, antigen-Fc on biosensor;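 also: antigen captured on the biosensor tip and then immersed in solutions of the test antibodies, which act as the analyte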
T4 construct: as m38; also called V3 (e.g. SIRPα3)

[3] = target: T5, human SIRPα v2-Fc (SIRPα2 extracellular domain fused to human IGHG1_Fc) (human, UniProt P78324 31-373; P0DOX5 223-449 = IgG part); test: BLI Octet, antigen-Fc on biosensor;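 also: antigen captured on the biosensor tip and then immersed in solutions of the test antibodies, which act as the analyte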
T5 construct: as m38; also called V2 (e.g. SIRPα2); SIRPα V2:ESE

[4] = target: T6, human SIRPα v1-Fc (SIRPα1 extracellular domain fused to human IGHG1_Fc) (human, UniProt P78324 31-373; P0DOX5 223-449 = IgG part); test: BLI Octet, antigen-Fc on biosensor;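 also: antigen captured on the biosensor tip and then immersed in solutions of the test antibodies, which act as the analyte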
T6 construct: also called V1 (e.g. SIRPα1); SIRPα V1: DLN

human SIRPβ-Fc = target: T7, human SIRPβ-Fc (human); test: BLI Octet, antigen-Fc on biosensor
T7 construct: a signal peptide may be part of the entry

[5] = target: T8, human SIRPα v5-Fc (SIRPα5 extracellular domain fused to human IGHG1_Fc) (human, UniProt P78324 31-373; P0DOX5 223-449 = IgG part); test: BLI Octet, antigen-Fc on biosensor
T8 construct: as m38; also called V5 (e.g. SIRPα5)

cyno SIRPα-Fc = target: T9, cyno SIRPα-Fc (cynomolgus); test: BLI Octet, antigen-Fc on biosensor
T9 construct: a signal peptide may be part of the entry

human SIRPγ-Fc = target: T10, human SIRPγ-Fc (human); test: BLI Octet, antigen-Fc on biosensor
T10 construct: a signal peptide may be part of the entry

[6] = target: T11, human SIRPα v6-Fc (SIRPα6 extracellular domain fused to human IGHG1_Fc) (human, UniProt P78324 31-373; P0DOX5 223-449 = IgG part); test: BLI Octet, antigen-Fc on biosensor
T11 construct: as m38; also called V6 (e.g. SIRPα6)

Binder | binding result (mouse SIRPα-Fc) | Kd [2] [nM] | koff [2] [s⁻¹] | kon [2] [M⁻¹ s⁻¹] | binding result [3] | Kd [4] [nM] | Kd (human SIRPβ-Fc) [nM] | Kd [3] [nM] | Kd (cyno SIRPα-Fc) [nM] | Kd (human SIRPγ-Fc) [nM] | Kd [6] [nM] | also measured
SIRPAB-1 (antibody, human IgG1, kappa, V domains shown) VH: QVQLQESGPGLVKPSQTLSLTCTVSGGSISSGGYYWSWIRQHPGKGLEWIGSIYYSGSTYYNPSLKSRVTISVDTSKNQFSLKLSSVTAADTAVYYCAREGYHSGMDVWGQGTTVTVSS VL: DIQMTQSPSSLSASVGDRVTITCQASQDISNYLNWYQQKPGKAPKLLIYDASNLATGVPSRFSGSGSGTDFTFTISSLQPEDIATYYCQQFAYLPWTFGGGTKVEIKR |  |  |  |  |  |  | 4.61 | 44.2 |  | 1.43 | 54.9 | 
SIRPAB-3 (antibody, human IgG1, kappa, V domains shown) VH: QVQLQESGPGLVKPSQTLSLTCTVSGGSISSGGWYWQWIRQHPGKGLEWIGTIYYSGSTFYNPSLKSRVTISVDTSKNQFSLKLSSVTAADTAVYYCAREGYHSGMDVWGQGTTVTVSS VL: DIQMTQSPSSLSASVGDRVTITCQASQDISNYLNWYQQKPGKAPKLLIYDASNLATGVPSRFSGSGSGTDFTFTISSLQPEDIATYYCQQFAYLPWTFGGGTKVEIKR |  |  |  |  |  | 0.2 | 0.22 |  | 7.95 | 0.118 |  | Kd (mouse SIRPα-Fc): 12.6 nM
SIRPAB-2 (antibody, human IgG1, kappa, V domains shown) VH: QVQLQESGPGLVKPSQTLSLTCTVSGGSISSGGDYWAWIRQHPGKGLEWIGYIYPSGFTYYNPSLKSRVTISVDTSKNQFSLKLSSVTAADTAVYYCAREGYHSGMDVWGQGTTVTVSS VL: DIQMTQSPSSLSASVGDRVTITCQASQDISNYLNWYQQKPGKAPKLLIYDASNLATGVPSRFSGSGSGTDFTFTISSLQPEDIATYYCQQFAYLPWTFGGGTKVEIKR |  |  |  |  |  |  | 0.89 | 10.7 | 19.3 | 0.14 | 11.9 | 

Continued, in another order:

binding result (mouse SIRPα-Fc) | Kd [2] [nM] | koff [2] [s⁻¹] | kon [2] [M⁻¹ s⁻¹] | binding result [3] | Kd [4] [nM] | Kd (human SIRPβ-Fc) [nM] | Kd [3] [nM] | Kd (cyno SIRPα-Fc) [nM] | Kd (human SIRPγ-Fc) [nM] | Kd [6] [nM] | Binder | also measured
no binding | 22.3 | 0.0226 | 1.02e+06 | no binding |  |  |  |  |  |  | SIRPAB-8 (antibody, human IgG1, kappa, V domains shown) VH: QVQLVQSGAEVKKPGASVKVSCKASGYTFTSYGISWVRQAPGQGLEWMGWISPYNGNTNYAQKLQGRVTMTTDTSTSTAYMELRSLRSDDTAVYYCAREAGSSWYDFDLWGRGTLVTVSS VL: DIQMTQSPSSVSASVGDRVTITCRASQGISSWLAWYQQKPGKAPKLLIYAASNLQSGVPSRFSGSGSGTDFTLTISSLQPEDFATYYCQQGASFPITFGGGTKVEIKR | fold increase over background (100 nM) (human SIRPα on cells): 1310 fold; fold increase over background (100 nM) [1]: 1020 fold
no binding | 0.83 | 0.000965 | 1.17e+06 |  | 1.65 | 4.52 | 17.2 | 14.9 | 4.12 | 2.71 | SIRPAB-13 (antibody, human IgG1, kappa, V domains shown) VH: QVQLVQSGAEVKKPGASVKVSCKASGYTFHGYGISWVRQAPGQGLEWMGWISAYSGETNYAQKLQGRVTMTTDTSTSTAYMELRSLRSDDTAVYYCAREAGSSWYDFDLWGRGTLVTVSS VL: DIQMTQSPSSVSASVGDRVTITCRASQGISSWLAWYQQKPGKAPKLLIYAASNLQSGVPSRFSGSGSGTDFTLTISSLQPEDFATYYCQQGASFPITFGGGTKVEIKR | koff [4]: 0.00205 s⁻¹; kon [4]: 1.24e+06 M⁻¹ s⁻¹; koff (human SIRPβ-Fc): 0.00544 s⁻¹; kon (human SIRPβ-Fc): 1.21e+06 M⁻¹ s⁻¹; Kd [5]: 7.73 nM; koff [5]: 0.00892 s⁻¹; kon [5]: 1.16e+06 M⁻¹ s⁻¹; koff [3]: 0.0172 s⁻¹; kon [3]: 1e+06 M⁻¹ s⁻¹; koff (cyno SIRPα-Fc): 0.0197 s⁻¹; kon (cyno SIRPα-Fc): 1.32e+06 M⁻¹ s⁻¹; koff (human SIRPγ-Fc): 0.00558 s⁻¹; kon (human SIRPγ-Fc): 1.35e+06 M⁻¹ s⁻¹; koff [6]: 0.00364 s⁻¹; kon [6]: 1.35e+06 M⁻¹ s⁻¹
no binding |  |  |  | no binding |  |  |  |  | 8.36 |  | SIRPAB-6 (antibody, human IgG1, kappa, V domains shown) VH: QVQLQESGPGLVKPSQTLSLTCTVSGGSISSGGYYWSWIRQHPGKGLEWIGYIYYSGSTYYNPSLKSRVTISVDTSKNQFSLKLSSVTAADTAVYYCAREGLDGSYGSSAWGQGTLVTVSS VL: DIQLTQSPSSLSASVGDRVTITCQASQDISNYLNWYQQKPGKAPKLLIYDASNLETGVPSRFSGSGSGTDFTFTISSLQPEDIATYYCQQFAYLPYTFGGGTKVEIKR | binding result [6]: no binding
